{"source": "patent EP3573716B1", "about": "“BIOLOGICALLY ACTIVE FUSION PEPTIDE FOR USE IN THE TREATMENT OF SPINAL MUSCULAR ATROPHY (SMA)” (Istituti Clinici Scientifici Maugeri Spa Società Benefit, priority 2017, dated 2026)", "molecules": {"B1": {"name": "TAT48-57-SMN^235-294: fusion peptide of carrier peptide TAT48-57 (SEQ ID NO: 1) and SMN^235-294 carboxy-terminal domain (SEQ ID NO: 29) as active peptide portion (peptide, listed as Homo sapiens)", "chain": "GRKKRRQRRRPFPSGPPIIPPPPPICPDSLDDADALGSMLISWYMSGYHTGYYMGFRQNQKEGRCSHSLN", "modifications": "HIV-1; Fragment of the full-length human SMN protein, i.e. the SMN235-294 carboxy-terminal domain"}}, "key": {"[1]": {"test_system": "Smn knock-down NSC-34 motor neuronal cells (sh_Smn_519-FM5S clone)", "assay": "Neuritogenesis and neurite outgrowth (morphometric analysis, β-tubulin III immunostaining) in Smn knock-down motor neuronal cells", "format": "cell-based, mouse", "description": "(§1) The psiRNA-hH1neo G2 (InvivoGen) and sh_Smn_519 (Shafey et al. Hypomorphic Smn knockdown C2C12 myoblasts reveal intrinsic defects in myoblast fusion and myotube morphology, 2005, Exp Cell Res 311:49-61) constructs were transfected into the NSC-34 cells using FuGENE HD Transfection Reagent (Promega) according to the manufacturer's instructions. Forty-eight hours after the transfection, cells were subject to drug selection with 1 mg/ml G418 (Sigma-Aldrich) to obtain stably transfected cell lines. Two weeks after the transfection, single clones were picked and expanded in a DMEM/10% FBS/G418-based medium to obtain the psiRNA and sh_Smn_519 NSC-34 clonal cell lines, respectively. To induce differentiation, clones were maintained in culture with differentiation medium (DMed) (1:1 DMEM plus Ham's F12, 1% FBS, 1% penicillin/streptomycin, and 1% modified Eagle's medium nonessential amino acids; see 48).\nTwenty-four hours after plating, psiRNA and sh_Smn_519 NSC-34 stable clones were treated with various concentrations of transducible fusion protein/peptide (3 hours). Protein/peptide in excess were subsequently removed and cells were maintained in culture in DMed for 24 and 48 hours. Cells were then fixed and stained, as described below. Neurite outgrowth and/or cell death were subsequently analyzed (see \"Immunocytochemistry\") .\nFor immunostaining, cells were incubated for 1 hour with a blocking/permeabilizing solution (5% Serum, 0.1% Triton X-100, in PBS) at room temperature. To evaluated neurite outgrowth, cells were immunostained using a mouse antibody to β-tubulin isotype III (Sigma-Aldrich). Neurite length was measured according to a protocol previously established in our laboratory using ImageJ software (National Institutes of Health) and NeuronJ plug-in. Briefly, only processes as long as twofold the average cell body dimension were considered neurites and measured. […] A total of about 100 cells per group were analyzed. […]"}, "[2]": {"test_system": "Smn knock-down NSC-34 motor neuronal cells (sh_Smn_519-FM5S clone)", "assay": "Apoptotic cell death (cells with condensed nuclei, Hoechst 33342) in Smn knock-down motor neuronal cells", "format": "cell-based, mouse", "conditions": "48 hours after the switch to DMed", "description": "as §1, with “To induce differentiation, clones were maintained in culture with differentiation medium (DMed) (1:1 DMEM plus Ham's F12, 1% FBS, 1% penicillin/streptomycin, and 1% modified Eagle's medium nonessential amino acids; see 48).” left out\nTwenty-four hours after plating, psiRNA and sh_Smn_519 NSC-34 stable clones were treated with various concentrations of transducible fusion protein/peptide (3 hours). […] Neurite outgrowth and/or cell death were subsequently analyzed (see \"Immunocytochemistry\") .\nCells were rinsed in phosphate-buffered saline (PBS) and fixed in 4% PFA for 20 min. […] The number of cells showing condensed nuclei was counted as previously described.\nSubsequently, the neuroprotective activity of the two peptides was evaluated. […] Forty-height hours after the switch to DMed, the impact of the two TAT48-57-fusion peptides towards cell death was determined in terms of reduction in the number of cells with condensed nuclei. […]"}}}
{"molecule": "B1", "values": [{"measurement": "diminished the number of sh_Smn_519-FM5S cells without neurites", "setting": "[1]; 10 nM, versus untreated sh_SMN_519-FM5S cells, 24 hours after the switch to DMed", "result": "~40", "unit": "%"}, {"measurement": "concentration with significant effect on number of cells without neurites and mean length of the longest neurite per cell", "setting": "[1]; sh_Smn_519-FM5S clone, 3 hours pre-incubation, then differentiating conditions (DMed)", "result": "above 10 nM"}, {"measurement": "increased the mean length of the longest neurite per cell", "setting": "[1]; sh_Smn_519-FM5S clone, apparently 10 nM, versus untreated cells, 24 hours after the switch to DMed", "result": 30, "unit": "%"}, {"measurement": "diminished the number of cells with condensed nuclei", "setting": "[2]; 100 nM, sh_Smn_519-FM5S cells, versus untreated cells", "result": "~45", "unit": "%"}, {"measurement": "concentrations significantly protective towards apoptotic cell death", "setting": "[2]; sh_SMN_519-FM5S cells", "result": "1 to 100", "unit": "nM"}]}
